Sequences and labels used below:
B1: Arabidopsis thaliana cryptochrome 2 (CRY2, UniProt Q96524), residues 1-535 fused after the Gal4 DNA-binding domain (Gal4BD-CRY2(535)); mutagenized window 321-412, Q96524 (parent)
chain: MKMDKKTIVWFRRDLRIEDNPALAAAAHEGSVFPVFIWCPEEEGQFYPGRASRWWMKQSLAHLSQSLKALGSDLTLIKTHNTISAILDCIRVTGATKVVFNHLYDPVSLVRDHTVKEKLVERGISVQSYNGDLLYEPWEIYCEKGKPFTSFNSYWKKCLDMSIESVMLPPPWRLMPITAAAEAIWACSIEELGLENEAEKPSNALLTRAWSPGWSNADKLLNEFIEKQLIDYAKNSKKVVGNSTSLLSPYLHFGEISVRHVFQCARMKQIIWARDKNSEGEESADLFLRGIGLREYSRYICFNFPFTHEQSLLSHLRFFPWDADVDKFKAWRQGRTGYPLVDAGMRELWATGWMHNRIRVIVSSFAVKFLLLPWKWGMKYFWDTLLDADLECDILGWQYISGSIPDGHELDRLDNPALQGAKYDPEGEYIRQWLPELARLPTEWIHHPWDAPLTVLKASGVELGTNYAKPIVDIDTARELLAKAISRTREAQIMIGAAPDEIVADSFEALGANTIKEPGLCPSVSSNDQQVPSAV

The assay covers variants of B1. In words: yeast two-hybrid growth selection (MaV203; Gal4BD-CRY2(1-535) library x Gal4AD-CIB1; URA3 reporter on SC -Trp/-Leu/-Ura) in the dark, deep sequencing before and after selection, Enrich2 scoring; three independent screens (one at 48 h, two …). The following applies: with CIB1 (CRYPTOCHROME-INTERACTING BASIC-HELIX-LOOP-HELIX 1), dark (no blue light), screens 1, 3 and 4, Svar > 0 = enriched under dark selection for CRY2-CIB1 two-hybrid growth (URA3 reporter), < 0 = depleted, relative to wild type (whose scores are 0). 'The Enrich2 software calculates, parent: 0, not an affinity, scale: Enrich2 score, numbering: uniprot, sequence starts at 1.
For the variant E347K, the enrichment was -1.6.

With E347V, the enrichment was -1.41.

For the variant E347G, the enrichment is -1.39.

Consider D342A, for which the enrichment is -0.75.

In the case of D342G, the enrichment was -1.84.

Turning to D342V, the enrichment is -1.71.

Take H408R: the enrichment is 2.75.

Turning to H408Y, the enrichment was -0.432.

For H408P, the enrichment was 1.5.

On to M354V, for which the enrichment is 0.0609.

Consider M354R, for which the enrichment is -1.57.

As for M354L, the enrichment is 0.399.

With G396V, the enrichment was 0.898.

As for G396D, the enrichment was 0.65.

As for G396S, the enrichment was -1.1.

Q333L: the enrichment is -0.0861.

Consider Q333K, for which the enrichment is -0.851.

Consider Q333P, for which the enrichment is -1.44.

On to I361V, for which the enrichment was -0.287.

Consider I361L, for which the enrichment was 0.823.

Consider I361S, for which the enrichment was -0.712.

Take I361M: the enrichment was -0.375.

Consider I361T, for which the enrichment was -0.646.

For the variant I361N, the enrichment was -1.11.

T384A: the enrichment is 0.177.

Regarding T384S, the enrichment was 0.274.

For the variant T384I, the enrichment is -0.949.

For R359S, the enrichment was -0.603.

With R359I, the enrichment is -0.665.

Regarding T336S, the enrichment is 0.494.

For the variant T336I, the enrichment was -1.58.

For T336N, the enrichment is -0.274.

Regarding D389V, the enrichment was -0.759.

Regarding D389E, the enrichment is -0.54.

On to D389N, for which the enrichment was -0.535.

On to D389A, for which the enrichment was -0.573.

With W374G, the enrichment is 0.75.

For W374C, the enrichment was 1.8.

As to K368T, the enrichment is 2.52.

On to K368V, for which the enrichment is 1.84.

With K368Q, the enrichment was 2.29.

Turning to K368M, the enrichment was 2.28.

With K368R, the enrichment is 0.246.

With K368S, the enrichment is 1.76.

In the case of K368D, the enrichment is 3.06.

For the variant E391G, the enrichment was -1.1.

For the variant E391D, the enrichment is -0.531.

Turning to E391K, the enrichment is -0.425.

As to E391A, the enrichment is -0.592.

With E391V, the enrichment is -0.645.

As for E391Q, the enrichment was -0.786.

For G334A, the enrichment is -1.45.

Take G334S: the enrichment is -0.925.

G334V: the enrichment was -0.578.

For G334C, the enrichment was 0.0705.

As for V341A, the enrichment was -1.68.

Regarding V341E, the enrichment was -1.64.

Regarding V341G, the enrichment is -1.65.

Regarding V341L, the enrichment is -1.04.

With V341M, the enrichment is -0.679.

For P339Q, the enrichment was -1.15.

Regarding P339T, the enrichment was -0.66.

Take P339L: the enrichment was -1.02.

Consider L372I, for which the enrichment is -0.44.

In the case of L372R, the enrichment was 0.499.

On to L372F, for which the enrichment is 0.987.

In the case of L372P, the enrichment was -1.5.

For the variant L371V, the enrichment was 1.25.

Turning to L371I, the enrichment was -0.7.

As to L371S, the enrichment is 1.98.

Consider L371F, for which the enrichment was 3.11.

With A350D, the enrichment was -0.775.

For A350P, the enrichment is -1.4.

As for A350S, the enrichment was 0.303.

Take A350G: the enrichment was 0.232.

On to A350V, for which the enrichment was -0.0426.

Regarding P405R, the enrichment is 1.02.

On to P405H, for which the enrichment was 1.08.

As for P405L, the enrichment was 2.

In the case of L370P, the enrichment was -1.4.

Turning to L370H, the enrichment was -0.964.

As for L370R, the enrichment is 0.499.

As for S403C, the enrichment is 0.314.

On to S403I, for which the enrichment is 2.54.

In the case of S403G, the enrichment is -0.408.

With L385I, the enrichment is 2.28.

Regarding L385H, the enrichment is 2.39.

Take L385F: the enrichment was 2.61.

Regarding L385R, the enrichment was -0.336.

As for R332G, the enrichment is -0.0201.

For the variant R332I, the enrichment is -0.681.

L395F: the enrichment is 2.13.

L395R: the enrichment is -0.209.

For the variant L395P, the enrichment is -0.953.

For the variant Y338F, the enrichment was -0.84.

Turning to Y338C, the enrichment is -1.57.

As for Y338H, the enrichment is -0.584.

In the case of Y338S, the enrichment was -0.758.

With A366V, the enrichment was 2.13.

In the case of A366P, the enrichment was -1.03.

Consider D411E, for which the enrichment was 1.55.

Regarding I400Y, the enrichment was 1.86.

For the variant I400T, the enrichment is -0.933.

As to I400S, the enrichment was -0.343.

In the case of I400M, the enrichment was 0.868.

Regarding I400L, the enrichment was -0.846.

For the variant I400F, the enrichment was 1.95.

In the case of I400V, the enrichment is -0.353.

As for W349R, the enrichment is 0.599.

In the case of W349S, the enrichment was 0.756.

On to W349C, for which the enrichment is 0.242.

Take A343D: the enrichment is -0.747.

In the case of A343P, the enrichment is -2.1.

Take A343T: the enrichment was -0.823.

Regarding A343G, the enrichment is -0.899.

Consider F328L, for which the enrichment is -0.872.

Turning to F328V, the enrichment is -2.43.

Regarding F328C, the enrichment is -1.53.

On to F328S, for which the enrichment is -1.95.

Consider F328I, for which the enrichment was -1.51.

Turning to F328Y, the enrichment is -0.296.

W321L: the enrichment is -1.18.

W321C: the enrichment is -0.0126.

With W321G, the enrichment is -0.157.

Regarding G377V, the enrichment was -0.508.

On to G377R, for which the enrichment is -1.08.

As for G377E, the enrichment was -0.85.

Take I394T: the enrichment was 0.588.

As to I394A, the enrichment was 1.15.

Turning to I394M, the enrichment is 1.08.

As to I394S, the enrichment was 0.694.

Regarding I394Y, the enrichment was 1.45.

I394V: the enrichment was 0.326.

As to I394L, the enrichment was 2.29.

With G407A, the enrichment was -0.714.

For G407N, the enrichment is 2.77.

For G407V, the enrichment is 1.39.

Take G407C: the enrichment was 1.11.

In the case of G407D, the enrichment is 1.47.

For G337R, the enrichment is -0.665.

For G337S, the enrichment was -0.736.

Consider G337C, for which the enrichment was -1.19.

Regarding G337V, the enrichment is -1.13.

For A388G, the enrichment was -1.33.

Regarding A388P, the enrichment was -0.944.

On to A388T, for which the enrichment is -0.454.

Turning to A388V, the enrichment is -0.153.

Turning to D406A, the enrichment was -0.00151.

Consider D406E, for which the enrichment was -0.152.

For D406Y, the enrichment is -0.496.

On to D406N, for which the enrichment was -0.7.

Take D406H: the enrichment is -0.803.

As for D322G, the enrichment is 0.357.

As to D322A, the enrichment is -0.241.

In the case of D322N, the enrichment is 0.239.

With D322Y, the enrichment is -0.959.

Turning to D322V, the enrichment was 0.286.

As for N356S, the enrichment is 0.0584.

With N356Y, the enrichment is 0.824.

With N356H, the enrichment is 0.0591.

In the case of G344R, the enrichment was -0.722.

Regarding G344E, the enrichment is -0.724.

Regarding D326Y, the enrichment is -0.976.

On to D326A, for which the enrichment was -0.893.

Turning to D326G, the enrichment was 0.327.

Regarding D326N, the enrichment was -0.256.

With D326V, the enrichment was -0.872.

The values are drawn from paper PMC12212125, “Constitutively active Arabidopsis cryptochrome two alleles identified using yeast selection and deep mutational scanning” (The Journal of Biological Chemistry, 2025).
